Assay [1] addresses Hexameric Aβ from CHO cells transfected with C99 carrying the Arctic (E22G) FAD mutation (human). Briefly: SDS-PAGE and western blot of oligomer bands; CHO cell lysates (4% SDS lysis buffer, heated 10 min at 70 °C with 50 mM DTT) and lyophilised culture media 48 h after transfection; 4-12% NuPAGE bis-tris gels; detected with anti-Aβ W0-2. A general note: Immunoblotting shows a protein as a band on a membrane.

Assay [2] has as its target Hexameric Aβ from CHO cells transfected with C99 carrying the Iowa (D23N) FAD mutation (human). Described as above.
Assay [3] has as its target Hexameric Aβ from CHO cells transfected with C99 carrying the Flemish (A21G) FAD mutation (human). Described as above.
Assay [4] deals with vC42, assembly-impaired variant of Aβ42 (F19S, G37D) from transfected CHO cells (human). The assay is described as above.
Assay [5] has as its target Hexameric Aβ from CHO cells transfected with C99 carrying the Italian (E22K) FAD mutation (human). Described as above.
The target of assay [6] is Aβ in the dimer and trimer bands of the culture media of C99 transfected CHO cells (isoform not determined) (human). The assay is described as above.
Assay [7] concerns the target C99-derived hexameric Aβ42 (cell-derived amyloid-β 42 from CHO cells transfected with C99) (human) (UniProt P05067). Put plainly: GELFrEE fractionation by size and western blot; Aβ immunoprecipitated with W0-2 from media, boiled at 95 °C with DTT, separated on the GELFrEE 8100 system; fractions blotted with W0-2; hexamer in fraction 5.
For assay [8] the target is unchanged. Put plainly: SDS-PAGE and western blot of oligomer bands; CHO cell lysates (4% SDS lysis buffer, heated 10 min at 70 °C with 50 mM DTT) and lyophilised culture media 48 h after transfection; 4-12% NuPAGE bis-tris gels; detected with anti-Aβ W0-2.
For assay [9], the target named is Hexameric Aβ from CHO cells transfected with C99 carrying the Dutch (E22Q) FAD mutation (human). Described as above.

Several values for one entry are separate records, joined by “and”; a condition that tells them apart may be missing. Equal entries are not always repeated.

For “Hexameric Aβ from CHO cells transfected with C99 carrying the Arctic (E22G) FAD mutation (peptide)”, the stoichiometry N in [1] is 6.

For “Hexameric Aβ from CHO cells transfected with C99 carrying the Iowa (D23N) FAD mutation (peptide)”, the stoichiometry N in [2] was 6.

As for “Hexameric Aβ from CHO cells transfected with C99 carrying the Flemish (A21G) FAD mutation (peptide)”, the stoichiometry N in assay [3] is 6.

For “vC42, assembly-impaired variant of Aβ42 (F19S, G37D) from transfected CHO cells (peptide)”, the stoichiometry N in assay [4] was 2 and 3.

Regarding “Hexameric Aβ from CHO cells transfected with C99 carrying the Italian (E22K) FAD mutation (peptide)”, the stoichiometry N in [5] turned out to be 6.

For the substance “Aβ in the dimer and trimer bands of the culture media of C99 transfected CHO cells (isoform not determined) (peptide)”, the stoichiometry N in [6] is 2 and 3.

On to “C99-derived hexameric Aβ42 (cell-derived amyloid-β 42 from CHO cells transfected with C99) (from UniProt P05067 672-770) (peptide)”, for which the stoichiometry N in [7] and in [8] was 6 each time.

As for “Hexameric Aβ from CHO cells transfected with C99 carrying the Dutch (E22Q) FAD mutation (peptide)”, in assay [9], the stoichiometry N was 6.

As a reminder, the stoichiometry N is a count of units in the complex or per binding partner.

These data come from article PMC8172837.
